Consider two molecules from paper PMC10689933 (Molecular Therapy Oncolytics, 2023).

In assay [1] the target is T1, CD24, membrane-associated, on human cells (Homo sapiens, UniProt P25063).
T1 chain: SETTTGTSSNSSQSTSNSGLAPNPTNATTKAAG
The assay can be described thus: flow cytometry on cells. (Flow cytometry measures light scatter and fluorescence of single cells or particles in a stream.)

The next assay deals with T2, His-tagged CD24 antigen (Homo sapiens (species assumed), UniProt P25063).
T2 chain: T1 chain
The assay can be described thus: ELISA. On the technique in general: In an ELISA, binding on a coated surface is turned into a signal by an enzyme label.

B1: PPAB001, bispecific antibody fusion protein against CD47 and CD24 (bispecific antibody, V domains shown)
VH: VKLVESGGGLVQPGGSLKLSCAASGDSVTSKSMSWVRQAPSGGLQWIGRTYPDNGDSSYTPSVRSRFIISRDNAKNTLYLQMRKVRSEDTGFYYCARQGDYWGQGTTLTVSS
VL: DVVMTQTPLTLSLSPGQPASISCKSSQSGSIGRAKTYLNWYQQRPGQAPKLLIYDASKLDSGVPDRFTGSGSGTDFTLKISRVEAEDLGVYYCWQGTHFPYTFGGGTKLEIK
Turning to B1, the binding result (in assay [1]; with His-tagged CD24 antigen) was “binds” throughout.

B2: humanized anti-CD24 antibody with common light chain (antibody, V domains shown)
VH: B1 VH
VL: B1 VL
Take B2: the binding result in assay [1] was “binds”.
